For orientation: Km means the concentration of substrate that gives half-maximal velocity. Broadly, the Vmax is the top rate of the reaction or transport when substrate is in excess.

Substrate in this data set: O=C(O)/C=C1/C=CC(=O)O1
The data set is described as follows: purified protein. Format: biochemical, Cupriavidus pinatubonensis. To be noted: Tris-Cl pH 7.0, 37 °C, 0.5 µM enzyme, 1-1000 µM substrate.

B1: TfdEI (Cupriavidus pinatubonensis JMP134) (protein)
chain: MLSDGVEITSRSGGRFGAYLGKPTTDSAPIVVIAQEIFGITPFIRETVEWLVGAGFGCVCPDLYWRQAPNIELDANVPSEREQALALFRDFDMEAGVNDLSCAIEYARALPFSNGRVAVVGYCLGGALAFDVAARSLADCSIGYYGVGLEKKVSLVPAITRPAMFHMGTKDHYVTEEARSILEEHFGRNKNLSLHWYPVGHSFARSSSPNFDQAATTVANARTLELLAMLKDPS
notes: full-length tfdEI ORF (705 bp, 234 aa) in pET21b BamHI/HindIII; stop codon in reverse primer; E. coli BL21(DE3); about 25 kDa, monomeric
For B1, the Km is recorded as 84 µM and the Vmax was determined as 9.09 µM/min.

B2: TfdEII (Cupriavidus pinatubonensis JMP134) (protein)
chain: MCHDTAPALFPRTASTGSIDGAICALCYAGATRGPRLLVLPDIYGCNAFYRGYAAYLAEQGAGEVLLVDPFAAFGELATVTREAAFQRRHRLADRAYVEELIDFIDGQRIEGVVGFCLGGLFVFELARQQVVSRLVAYYPFPQGLENRDPLDVPFDYLPALRSRHTVIVGDDDALLGTQNLQRLQAQARANDAIDLHIMNGAGHGFLADLESPDTARAAVAKRGLRIGTTTLLGG
notes: full-length tfdEII ORF (708 bp, 235 aa) in pET21b BamHI/HindIII; stop codon in reverse primer; E. coli BL21(DE3); about 25 kDa, monomeric
As to B2, the Km came to 178 µM and the Vmax came to 8.38 µM/min.

These data come from publication PMC4108320, “Two Structurally Different Dienelactone Hydrolases (TfdEI and TfdEII) from Cupriavidus necator JMP134 Plasmid pJP4 Catalyse Cis- and Trans-Dienelactones with Similar Efficiency” (PLoS ONE, 2014).
